Results from patent US20250313620A1.

Tests used:
[1] = target: PD-1 on in vitro activated primary human T cells (human) (UniProt Q15116); experiment: flow cytometry, PD-1 staining of activated T cells treated with RV2 precomplexed with IL-15, 100 nM
[2] = target: PD-1 on in vitro activated primary human T cells (human) (UniProt Q15116); experiment: flow cytometry, PD-1 staining of activated T cells treated with IL-15 1 nM
[3] = target: PD-1 on in vitro activated primary human T cells (human) (UniProt Q15116); experiment: flow cytometry, PD-1 staining of activated T cells, media only
[4] = target: PD-1 on in vitro activated primary human T cells (human) (UniProt Q15116); experiment: flow cytometry, PD-1 staining of activated T cells treated with IL-15 10 nM
[5] = target: PD-1 on in vitro activated primary human T cells (human) (UniProt Q15116); experiment: flow cytometry, PD-1 staining of activated T cells treated with RV2 precomplexed with IL-15, 10 nM
[6] = target: PD-1 on in vitro activated primary human T cells (human) (UniProt Q15116); experiment: flow cytometry, PD-1 staining of activated T cells treated with IL-15Rα-Fc precomplexed with IL-15, 100 nM
[7] = target: PD-1 on in vitro activated primary human T cells (human) (UniProt Q15116); experiment: flow cytometry, PD-1 staining of activated T cells treated with RV1 precomplexed with IL-15, 100 nM
[8] = target: PD-1 on in vitro activated primary human T cells (human) (UniProt Q15116); experiment: flow cytometry, PD-1 staining of activated T cells treated with RV1 precomplexed with IL-15, 10 nM
[9] = target: PD-1 on in vitro activated primary human T cells (human) (UniProt Q15116); experiment: flow cytometry, PD-1 staining of activated T cells treated with RV1 precomplexed with IL-15, 1 nM
[10] = target: PD-1 on in vitro activated primary human T cells (human) (UniProt Q15116); experiment: flow cytometry, PD-1 staining of activated T cells treated with IL-15Rα-Fc precomplexed with IL-15, 1 nM
[11] = target: PD-1 on in vitro activated primary human T cells (human) (UniProt Q15116); experiment: flow cytometry, PD-1 staining of activated T cells treated with IL-15 100 nM
[12] = target: PD-1 on in vitro activated primary human T cells (human) (UniProt Q15116); experiment: flow cytometry, PD-1 staining of activated T cells treated with RV2 precomplexed with IL-15, 1 nM
[13] = target: PD-1 on in vitro activated primary human T cells (human) (UniProt Q15116); experiment: flow cytometry, PD-1 staining of activated T cells treated with IL-15Rα-Fc precomplexed with IL-15, 10 nM
[14] = target: PD-1 on in vitro activated primary human T cells (human) (UniProt Q15116); experiment: flow cytometry, PD-1 staining of Ki-67 positive activated T cells, average over the non-PD-1-binding treatments

Sequence of PD-1 on in vitro activated primary human T cells (human) (Q15116 25-288): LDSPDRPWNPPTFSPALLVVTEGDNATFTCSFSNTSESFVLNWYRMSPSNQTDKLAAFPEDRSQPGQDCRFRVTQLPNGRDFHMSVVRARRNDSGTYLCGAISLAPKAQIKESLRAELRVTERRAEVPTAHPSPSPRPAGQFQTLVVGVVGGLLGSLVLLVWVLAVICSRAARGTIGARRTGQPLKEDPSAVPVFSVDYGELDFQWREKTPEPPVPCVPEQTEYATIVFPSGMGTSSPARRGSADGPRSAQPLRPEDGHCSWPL

B1: PD-1 detection antibody (clone EH12.2H7) (antibody, from another filing, V domains shown)
VH: QVQLQQSGAELAKPGASVQMSCKASGYSFTSSWIHWVKQRPGQGLEWIGYIYPSTGFTEYNQKFKDKATLTADKSSSTAYMQLSSLTSEDSAVYYCARWRDSSGYHAMDYWGQGTSVTVSS
VL: DIVLTQSPASLTVSLGQRATISCRASQSVSTSGYSYMHWYQQKPGQPPKLLIKFGSNLESGIPARFSGSGSGTDFTLNIHPVEEEDTATYYCQHSWEIPYTFGGGTKLEIK
An MFI of PD-1 in Ki-67 positive CD4+ T cells [1] of 5840 MFI, an MFI of PD-1 in Ki-67 positive CD8+ T cells [1] of 2820 MFI and an MFI of PD-1 in Ki-67 positive CD4+ T cells [2] of 4870 MFI were found for B1 in this work. For the same binder, the MFI of PD-1 in Ki-67 positive CD8+ T cells [2] was 2050 MFI, the MFI of PD-1 in Ki-67 positive CD4+ T cells [3] was 4020 MFI and the MFI of PD-1 in Ki-67 positive CD8+ T cells [3] was 2250 MFI. It also gave an MFI of PD-1 in Ki-67 positive CD4+ T cells [4] of 6440 MFI, an MFI of PD-1 in Ki-67 positive CD8+ T cells [4] of 3190 MFI and an MFI of PD-1 in Ki-67 positive CD4+ T cells [5] of 5070 MFI. The MFI of PD-1 in Ki-67 positive CD8+ T cells [5] was 2020 MFI, the MFI of PD-1 in Ki-67 positive CD4+ T cells [6] was 4380 MFI and the MFI of PD-1 in Ki-67 positive CD8+ T cells [6] was 2110 MFI. The MFI of PD-1 in Ki-67 positive CD4+ T cells [7] was 4830 MFI, the MFI of PD-1 in Ki-67 positive CD8+ T cells [7] was 2370 MFI and the MFI of PD-1 in Ki-67 positive CD4+ T cells [8] was 4620 MFI. For the same binder, the MFI of PD-1 in Ki-67 positive CD8+ T cells [8] was 1890 MFI, the MFI of PD-1 in Ki-67 positive CD4+ T cells [9] was 4100 MFI and the MFI of PD-1 in Ki-67 positive CD8+ T cells [9] was 1870 MFI. The MFI of PD-1 in Ki-67 positive CD4+ T cells [10] was 4280 MFI, the MFI of PD-1 in Ki-67 positive CD8+ T cells [10] was 1690 MFI and the MFI of PD-1 in Ki-67 positive CD4+ T cells [11] was 6550 MFI. It also gave an MFI of PD-1 in Ki-67 positive CD8+ T cells [11] of 3220 MFI, an MFI of PD-1 in Ki-67 positive CD4+ T cells [12] of 4200 MFI and an MFI of PD-1 in Ki-67 positive CD8+ T cells [12] of 1920 MFI. For the same binder, the MFI of PD-1 in Ki-67 positive CD4+ T cells [13] was 4480 MFI, the MFI of PD-1 in Ki-67 positive CD8+ T cells [13] was 2120 MFI and the MFI of PD-1 staining, average, CD4+ cells [14] was 4830 MFI. The MFI of PD-1 staining, average, CD8+ cells [14] was 2190 MFI.
